# Laboratory results taken from the domain aggregation screens of Martell et al. (2025).
# Assay: soluble fraction after stress (log2 fold change); higher = more stays soluble; pooled small domains, quantitative proteomics
# Conditions: stress: pH 4
# How it was run: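 Custom libraries of small protein domains were pooled and measured with high-throughput quantitative proteomics after pH 4 stress. The read-out is the fold change in the amount of each domain that stays soluble after the acid stress, taken as a measure of aggregation propensity. Fold changes are on a log2 scale, and higher values mean more of the domain stayed soluble.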
row,Sequence,soluble fraction (log2)
1,HMTENIPPVKIEEMRQKWQDIVLLHGVTSGRKIKSGQATYIWLYRNDQNWLLTFNSRHLSQPQV,-0.263
2,HMTEPKILTAEESQRLDLILVQQWPELGRRALRELVQQGGVRINGELALKAGQYVQAGERVEVAVP,-0.879
3,HMTEQKNNEQQNAVNEKKQALKQLMEKGKEKGSLSYNEVNALLDKLEFTEDQKAIVYDQLHSEDIELQ,0.22
4,HMTEQLTLVGKTGVTTTDLRPSGKVEVDGKRYDAVADNGAFISKGAHIKVVRYVTGQVYVVPTD,-0.146
5,HMTERIRLHDDIGSWVEKHGATRSALIPVLQGIQRSYNEISEYAMQEVADRLDIHPVEVYSVVSFYSF,0.103
6,HMTESFEFTMNDLVQNNLIMGSGAKERRIAVGEALGIGYTNAKQFLSRLNHYGITRKEFDDEIEKVNQN,-0.217
7,HMTETEIVIGGKYRHYKGGEYELVSIVKHSETLEELVIYKSLSTGEMWARPKSLFVGLVDGQPRYTL,-1.39
8,HMTETIPVSERLFRYLFEEKGKRVQKIQQTSHARVRMERSPYSVVVSGTKDAVEAAMESLKATEKELLEA,0.321
9,HMTETPDDLLAALKKNKKAQATFDAFSPSNKKEYILWITEAKTEATRTKRLETAIEWMSEGKARNW,0.0435
10,HMTETTTVPKLKGLTKDEAEDAAKSSKIKLEFIDEISKTVEAGVIIKQEKDEGETVNAGDTVKVYVSIGT,-0.0593
11,HMTEWSIHEVAQRSGVTTRTLRHYDAIGILSPTRTGANGYRYYGPEALVRLQRILLLRDLGLALSDIAE,-1.66
12,HMTEYFTIESQEGERIDRYLSEELEDKSRSYIQKLIRDGHVLVDGKTVKAGYRLVAGDNIAITLPEI,-0.133
13,HMTFAPTAIPSLTRPMEELMSWSFTPNEAFILSRINGLWDVRSIAKISPFPEGEVLRVFEKLHDGGLIRW,-1.54
14,HMTFNEPSPKEIMDYSLSRGYKVDADAFIDFYRGKAKAYGKEGLWLDGRGRLVKDWRAKLRVVWFKDENKL,-1.09
15,HMTGDIGAEAAKAAALAHAGVTESQTAKMKVDRDWDDGRLEYDVEFDVGRTEYEYTIDGVTGAVLEYEQDI,0.0208
16,HMTGDIIKQERKKKNLTQIELAKKVGISRNALINYEAGTRIPPISVQLKLADVLGIDILDLK,-0.0221
17,HMTGDISRALDQLPADMRTVLILYALEKQRYEDIAQITGVSVGTVKSRLNRARQKLAAILANQREQNE,-0.101
18,HMTGDNQTIGGGGFHHVAIRAHDFDASVKFYGETLGFREKIAWGEGDKRAIMMDTGDGNYIEIF,-0.0678
19,HMTGEDIKKVILREYAREKSLLSIFHELSKVNSNVTLEVIKDIITNIDKLPNDLLQYFKEESSFYQKNKN,-1.35
20,HMTGGIWVQIQGAVERPGVYSLPRDSRLKDLLEAAGGFGRDADTEKVNQAARLEDGAMYRVPRQGEG,0.164
21,HMTGGLLVHVAGAVGAPGVVSLPEGARVVDAIEAAGGAREDADTDQLNLARPVVDGEQVRVPVVGEVLE,0.22
22,HMTGINMSYEEYKAMADIIVPLIKAGHSPYHIVTNHPELNISEKTLYNYIENGIFREFGLLDINL,-1.91
23,HMTGIRVYPNPTSSELRFSVATDAALYDATGARLRVVRGSDMMDIRDLASGTYYVRFADGSTQSVVVT,-0.0136

row,Sequence,soluble fraction (log2)
1,HMTGKLGKIILQPKQTVYGITKKYQISESELRRLNPQLDSHLKIGDEVILPAENIKKFGGNQPVAVS,≥ 0.43
2,HMTGKTTLEYLNPLLERGIPVWDYLAKASGKAKEEVQEMVSKGLVPGAEAAKAIADYMGAEFAGSMA,-0.343
3,HMTGKVKWYDADKGFGFVTEDGGRDVYVRKSALPQGVETLKAGQRLEFGIAEGRRGPQALSVR,-0.0382
4,HMTGLFSPTEQTRHSKTGATLYSVKLAERIERNAFQSLKKRAKEHDGYYSSFTRSFLFDTPEDAEAFRGT,-0.0888
5,HMTGMEASLSKLLQGEQFADLRKALIDKGIRKLEAFKRLNLWVFMNRNRLYSIGQRQTVYSTLQRALASE,0.085
6,HMTGREIDQLFSVVNDLKAKGVGMVFISHHLDEIARIADSVSVLRDGGFVAEVPASTPEKKLVTLMVGRDI,-0.369
7,HMTGWINVDKNWYYMNNSGSMARGMINVNNVSYYLDENGKMLSNTTVNVNGTDYRIDASGAMSQI,-0.153
8,HMTHEIKIKSHSLFASEGTKYQWYLNNIKINDATSQELEITSPGIYKLEMTNFDGDVIEKQIIVGLTNS,-1.52
9,HMTHHGHSIKRIRDMLGIKQETLAAELNMTQQAFSKLEQKEQIEDEMLDKIAKILHVSTEALKT,-0.459
10,HMTHPAHLARIGALIRSARQHEGLTQAQLAELLGTSQSAIHRIEQGGQNITLDMLTRISAALDSEIVTIG,-1
11,HMTHPQVEAYLDDLARMLADIDPGERDDILASVREHLDAEIAAGHGSDAVVNATLLRLGPPEQVAAAARTN,-0.899
12,HMTIAFPSNDVDAVVGYFESRGFDRTASISTATVILQQAKIDGVKVFELIDTLQGMDKVQLSYIVTEILN,-0.0582
13,HMTIATLGERIRKLRKERGLTLAELAGDKLSKGMLSLIENNRAKPSMESLEYIAKRLGVEPAELLE,0.297
14,HMTIENTDTFLETLWEQVQRASVDENGIITSRVLIWDEGTKLDEILSWFDKRHSLGALYLQFG,-1.74
15,HMTIFGWQTDETGKWYRNADGTFFEAGWKEIDGAKYYFDENGYVKTGWLELDGKDYYFDEEGRYDSSKVR,-1.69
16,HMTIGLLISKARTNSGLTQAELATRAGTSQAAIARYESDRVSPSVSTLERVLRAAGEELVISSS,-0.0184
17,HMTINPFSTLAVRELEILHYLLNGHRTKEIATNLGLKMNTVSTIKSNIFEKVKADSFTHLLQLAHVHQIS,-0.0952
18,HMTIQNSILDEIPNIGASRKRAILEAFGSVHRLRKASPEMISAKVEGIGPEMAQAIHDYLVKHPAT,0.223
19,HMTISAQAITPRLEVIKNFVLMEEWDAAQTQLEKLRSFTEIWSLDPLFSAMKKKDGQKISDWITGFIKDNM,-1.69
20,HMTISDEAMQAGRDAFIQALVAMGAEKNADAMASIEKALSADPGNKEYLATRDLIKKSMGMKK,0.138
21,HMTISGSDLKAQREALNIPLERIAKETRIRLSILQDLEDEEYSELSSSAQTKGFLRLYADYLSSHKQRLG,0.0379
22,HMTITDDETHKVLEEGASRMSEGLTFRDLVDLDRLHLTARGVIQKVLNENRIDADVDTIANMAQKLVARVS,-0.567
23,HMTKAEVLLDLQQRIISEEFLPGSWLVERDLSSEYGLSRTPIREILNKLVILGLISVQKNRGYQVR,-0.792

row,Sequence,soluble fraction (log2)
1,HMTKAILTANDVRNGDIVFWTADQRWSTSIDDAAIGYGKDDTDQLADAGKQAEAANTVVGAYLIALR,-1.14
2,HMTKASEELYFRLKEELGTGVIVEHKKYGEGVVTQLDDRLVHIMFQDDTLRMMDLKILANAGLLKVK,-1.87
3,HMTKDYVVIYEGLAQTEAVEILGKLQEMGVSAKVDHNDSILVLKDEEDQIRMALATEGYPKS,-0.803
4,HMTKEEKEKREKYEKLMKKADELVTAKNHKEAVTVLGQAKAYANPQQTKEIEEKIKAQTAELDKG,0.24
5,HMTKGVQMFAEQLKRTRQSRHYSQAEIASKLGVTQQAIAKWETGVSTPSPTSISKLSDILGISTDVLLKGA,≥ 0.43
6,HMTKIAFPQMLNKYRLQKNLTMEQLAEEVGKTKSTISKWEAGTRSPKIYEIEEIAKYFGVEPQTMMF,-0.548
7,HMTKINAPMPGNILDVKVNVGDHVEANQLVLMLEAMKMENEIFTPVAGTVVGVHVKKGDSVNSDDLLISI,-1.09
8,HMTKKEFLDILTESLAGNVPASEIEENIRYYKDYIENGEESEEKALEQLGDPHLIARTIIDSFIA,-1.46
9,HMTKLLSALQADKFAKKLANDTNFGSNFARMGESAMDFTNRLVEELQRDEGKVANYMPYLTKLGF,-0.305
10,HMTKLSPKEKSILHIIGDNAGIKSGQIAKRLDIPSPTVKRILSDLVSQNLIEKFGTGPGTNYSI,0.22
11,HMTKLTTDERSVYLHIQNKPGVSASSIREALGYKKSKLTSILAQLLEVHKIIDTEGTGKSLKYIL,0.091
12,HMTKMTPNRQLVLSVLQSSGKPLSAYELLDRLREQGTQWQPPTAYRALDYLVEQGLAHYLQSIQKYV,-0.317
13,HMTKNEFLASFQNELQKRHIPDWEDVVSEYEQHFALKQADGFSEEEIAAKLGAPAELAAQFEA,-0.0811
14,HMTKQIILVHVAGKVKKPDVYPLLQGSRVADAIKAAGGAKKGVELNDINLARVLIDGEQVFVGYVPE,-0.277
15,HMTKQRSAIMNLLAERNTPLTAEEIGEAIAPSYPKLALSTVYRNLELFTNAGLLEKSFFQDGITRYSLTK,-0.242
16,HMTKRTEPSILQNFDTEIAELIAKNRGISIMDALRIFLASKTHEMLENDEMKLWYFSPLAVFDMWENE,-0.61
17,HMTKSIDFDFREDGVYIKADKDVTIVDIVTKIDLRRIQSVDLTKIKQMLEIGSLDNWIKIAEPQMEK,-1.44
18,HMTKSTLQRQKIIADLIESGNISSQNQLKGLLKKNSLLITQATLSRDLSELGAIKKRQKDGLLVYVLPK,-0.0863
19,HMTKTKADKIDYAIGDSGTEPPTEDKWTDLAHLPLIKAGQFQWTRRTEYYSDGSTAVSYNIAKSE,0.156
20,HMTKYKEIVDQLRTNIYEGVFPALSKLPEQTALAKRFQTSRMTIQKALNQLKQEGLISTKRGHGTYVNSAT,0.021
21,HMTKYVEGQKYVFEFRDGTITIGTYLRTGEGNIYIKDLSGEDIYIPKIMIAQIHLATDDNVKGDEFWF,-1.17
22,HMTLDSLEKLSVNDLEKMLVNMPVGYKTIFLLSVIDEYSHKEIGELLGITPETSRSQLFRAIKWIKTNIF,-0.706
23,HMTLGARTLAAIQSLPKVQQAVFTMKHFEGLKYREISQITGTSEGALKASYHIALEKIKAFLREK,-0.443
